Test results reported in the supplement of paper PMC10567573.

B1: STEAP1 (parent)
chain: LWKMKPRRNLEEDDYLHKDTGETS

Variants of: B1
Test: protein stability index of a GFP-peptide fusion (GPS, HEK-293T) (PSI 1-6); higher = more stable
Details: c terminus: a fixed tail appended
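Note: lentivirally expressed fusions sorted by FACS into six bins by GFP to DsRed ratio, PSI derived from sequencing read proportions per bin multiplied by bin number.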

| Variant | protein stability index |
| --- | --- |
| LWKMKPWRNLEEDDYLHKDTGETS [R7W] | 4.07 |
| LWKMKPLRNLEEDDYLHKDTGETS [R7L] | 4.4 |
| LWKMKPQRNLEEDDYLHKDTGETS [R7Q] | 4.62 |
| LWKMKPKRNLEEDDYLHKDTGETS [R7K] | 4.69 |
| LWKMKPARNLEEDDYLHKDTGETS [R7A] | 4.83 |
| LWKMKPDRNLEEDDYLHKDTGETS [R7D] | 5.25 |
| LWKMKPIRNLEEDDYLHKDTGETS [R7I] | 4.26 |
| LWKMKPTRNLEEDDYLHKDTGETS [R7T] | 4.85 |
| LWKMKPRRNLEEWDYLHKDTGETS [D13W] | 3.21 |
| LWKMKPRRNLEEGDYLHKDTGETS [D13G] | 4.61 |
| LWKMKPRRNLEECDYLHKDTGETS [D13C] | 3.65 |
| LWKMKPRRNLEETDYLHKDTGETS [D13T] | 4.19 |
| LWKMKPRRNLEEADYLHKDTGETS [D13A] | 3.94 |
| LWKMKPRRNLEEIDYLHKDTGETS [D13I] | 3.84 |
| LWKMKPRRNLEEMDYLHKDTGETS [D13M] | 3.8 |
| LWKMKPRRNLVEDDYLHKDTGETS [E11V] | 4.28 |
| LWKMKPRRNLMEDDYLHKDTGETS [E11M] | 3.96 |
| LWKMKPRRNLDEDDYLHKDTGETS [E11D] | 4 |
| LWKMKPRRNLLEDDYLHKDTGETS [E11L] | 3.88 |
| LWKMKPRRNLNEDDYLHKDTGETS [E11N] | 3.83 |
| LWKMKPRRNLFEDDYLHKDTGETS [E11F] | 3.61 |
| LWKMKPRRNLREDDYLHKDTGETS [E11R] | 4.04 |
| LWKMKPRRNLEEDDHLHKDTGETS [Y15H] | 4.66 |
| LWKMKPRRNLEEDDSLHKDTGETS [Y15S] | 5.16 |

| Variant | protein stability index |
| --- | --- |
| LWKMKPRRNLEEDDPLHKDTGETS [Y15P] | 4.81 |
| LWKMKPRRNLEEDDTLHKDTGETS [Y15T] | 5.04 |
| LWKMKPRRNLEEDDVLHKDTGETS [Y15V] | 5.07 |
| LWKMKPRRNLEEDDALHKDTGETS [Y15A] | 5.02 |
| LWKMKPRRNLEEDDELHKDTGETS [Y15E] | 4.77 |
| LWKMKPRRNLEEDDMLHKDTGETS [Y15M] | 4.68 |
| LWKMKPRRHLEEDDYLHKDTGETS [N9H] | 4.47 |
| LWKMKPRRMLEEDDYLHKDTGETS [N9M] | 4.36 |
| LWKMKPRRSLEEDDYLHKDTGETS [N9S] | 4.56 |
| LWKMKPRRPLEEDDYLHKDTGETS [N9P] | 4.11 |
| LWKMKPRRGLEEDDYLHKDTGETS [N9G] | 4.58 |
| LWKMKPRRILEEDDYLHKDTGETS [N9I] | 4.15 |
| LWKMKPRRNLEEDDYKHKDTGETS [L16K] | 4.59 |
| LWKMKPRRNLEEDDYDHKDTGETS [L16D] | 4.92 |
| LWKMKPRRNLEEDDYNHKDTGETS [L16N] | 4.97 |
| LWKMKPRRNLEEDDYCHKDTGETS [L16C] | 4.63 |
| LWKMKPRRNLEEDDYHHKDTGETS [L16H] | 4.36 |
| LWKMKPRRNLEEDDYGHKDTGETS [L16G] | 5.08 |
| LWKMKPRRNLEEDDYVHKDTGETS [L16V] | 4.52 |
| LWKMKPRRNLEEDDYQHKDTGETS [L16Q] | 4.87 |
| LWKMKPRRNLEEDDYMHKDTGETS [L16M] | 4.24 |
| LWKMKPRRNWEEDDYLHKDTGETS [L10W] | 4.41 |
| LWKMKPRRNIEEDDYLHKDTGETS [L10I] | 4.67 |
| LWKMKPRRNVEEDDYLHKDTGETS [L10V] | 4.34 |

| Variant | protein stability index |
| --- | --- |
| LWKMKPRRNPEEDDYLHKDTGETS [L10P] | 4.86 |
| LWKMKPRRNGEEDDYLHKDTGETS [L10G] | 4.02 |
| LWKMKPRRNLEEDDYLHKDTMETS [G21M] | 3.93 |
| LWKMKPRRNLEEDDYLHKDTSETS [G21S] | 4.59 |
| LWKMKPRRNLEEDDYLHKDTDETS [G21D] | 4.25 |
| LWKMKPRRNLEEDDYLHKDTFETS [G21F] | 3.92 |
| LWKMKPRRNLEEDDYLHKDTKETS [G21K] | 4.26 |
| LWKMKPRRNLEEDDYLHKDTHETS [G21H] | 4.42 |
| LWKMKPRRNLEPDDYLHKDTGETS [E12P] | 4.26 |
| LWKMKPRRNLENDDYLHKDTGETS [E12N] | 4.15 |
| LWKMKPRRNLEDDDYLHKDTGETS [E12D] | 4.46 |
| LWKMKPRRNLETDDYLHKDTGETS [E12T] | 4.28 |
| LWKMKPRRNLEYDDYLHKDTGETS [E12Y] | 3.3 |
| LWKMKPRRNLESDDYLHKDTGETS [E12S] | 4.45 |
| LWKMKPRRNLEQDDYLHKDTGETS [E12Q] | 4.23 |
| LWKMKPRRNLEFDDYLHKDTGETS [E12F] | 3.51 |
| LWKMKPRKNLEEDDYLHKDTGETS [R8K] | 4.49 |
| LWKMKPRLNLEEDDYLHKDTGETS [R8L] | 4.03 |
| LWKMKPRMNLEEDDYLHKDTGETS [R8M] | 4.6 |
| LWKMKPRGNLEEDDYLHKDTGETS [R8G] | 4.07 |
| LWKMKPRQNLEEDDYLHKDTGETS [R8Q] | 4.67 |
| LWKMKPRSNLEEDDYLHKDTGETS [R8S] | 4.43 |
| LWKMKPRPNLEEDDYLHKDTGETS [R8P] | 4.61 |
| LWKMKPRNNLEEDDYLHKDTGETS [R8N] | 4.53 |

| Variant | protein stability index |
| --- | --- |
| LWKMKPRFNLEEDDYLHKDTGETS [R8F] | 3.93 |
| LWKMKPRINLEEDDYLHKDTGETS [R8I] | 4.22 |
| LWKMKPRDNLEEDDYLHKDTGETS [R8D] | 4.74 |
| LWKMKDRRNLEEDDYLHKDTGETS [P6D] | 4.41 |
| LWKMKWRRNLEEDDYLHKDTGETS [P6W] | 3.16 |
| LWKMKTRRNLEEDDYLHKDTGETS [P6T] | 4.47 |
| LWKMKKRRNLEEDDYLHKDTGETS [P6K] | 4.1 |
| LWKMKLRRNLEEDDYLHKDTGETS [P6L] | 3.86 |
| LWKMKIRRNLEEDDYLHKDTGETS [P6I] | 3.94 |
| LWKMKMRRNLEEDDYLHKDTGETS [P6M] | 3.77 |
| LWKMKGRRNLEEDDYLHKDTGETS [P6G] | 4.42 |
| LWKMKQRRNLEEDDYLHKDTGETS [P6Q] | 3.94 |
| LWKMKSRRNLEEDDYLHKDTGETS [P6S] | 4.57 |
| LWKMKFRRNLEEDDYLHKDTGETS [P6F] | 3.62 |
| LWKMSPRRNLEEDDYLHKDTGETS [K5S] | 5.01 |
| LWKMTPRRNLEEDDYLHKDTGETS [K5T] | 4.56 |
| LWKMFPRRNLEEDDYLHKDTGETS [K5F] | 2.77 |
| LWKMVPRRNLEEDDYLHKDTGETS [K5V] | 3.94 |
| LWKMIPRRNLEEDDYLHKDTGETS [K5I] | 3.36 |
| LWKMYPRRNLEEDDYLHKDTGETS [K5Y] | 3.9 |
| LWKMHPRRNLEEDDYLHKDTGETS [K5H] | 4.4 |
| LAKMKPRRNLEEDDYLHKDTGETS [W2A] | 5.25 |
